Assay results published in patent US20240092849A1 (MIT, published 2024).
Bridge positions count the residues as written; N and C are the ends. Square brackets hold non-standard residues; d marks the D form. Ends that are not written are not given here. alpha‑4‑pentenylAla = alpha-4-pentenyl alanine, stapling residue joined by ring-closing olefin metathesis; Cha = N[C@@H](CC1CCCCC1)C(=O)O; Nle = CCCC[C@H](N)C(=O)O; Aib = CC(C)(N)C(=O)O

Tests used:
Mcl-1 [1] = biological target: T1, Mcl-1 (human, UniProt Q07820 172-327, limits assumed); assay: fluorescence anisotropy competition with fluoresceinated Bim 21mer for Mcl-1
T1 construct: Recombinant protein in solution assays; It was biotinylated in the on-bead screens; also called human Mcl-1; BioMcl-1 (biotinylated, in the bead screens)
Text: The standard errors reported are over three experiments.
Position 2e is usually conserved as small (alanine, glycine, serine) in natural BH3 sequences.

Mcl-1 [2] = biological target: T1, Mcl-1; assay: biolayer interferometry, biotinylated peptide on streptavidin probe
Text: We used biolayer interferometry to measure the kinetics of binding of stapled peptides to Mcl-1 (FIG. 1(b)). We generated biotinylated stapled peptides and attached these to a streptavidin-modified probe surface.

murine Mcl-1 = murine Mcl-1 (murine, UniProt P97287 1-331); assay: cell-based or functional assay
Chain of murine Mcl-1 (P97287 whole entry): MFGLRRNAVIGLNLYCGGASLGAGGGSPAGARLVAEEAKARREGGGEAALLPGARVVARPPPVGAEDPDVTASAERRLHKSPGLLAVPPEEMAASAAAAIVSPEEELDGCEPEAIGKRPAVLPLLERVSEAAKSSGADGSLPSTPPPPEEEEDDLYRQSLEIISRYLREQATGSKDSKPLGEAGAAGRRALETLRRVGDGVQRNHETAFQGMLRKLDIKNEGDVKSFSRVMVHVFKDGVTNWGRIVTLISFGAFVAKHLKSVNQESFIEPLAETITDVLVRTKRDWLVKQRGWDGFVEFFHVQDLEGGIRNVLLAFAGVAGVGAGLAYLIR

T1 sequence (Q07820 172-327 limits assumed): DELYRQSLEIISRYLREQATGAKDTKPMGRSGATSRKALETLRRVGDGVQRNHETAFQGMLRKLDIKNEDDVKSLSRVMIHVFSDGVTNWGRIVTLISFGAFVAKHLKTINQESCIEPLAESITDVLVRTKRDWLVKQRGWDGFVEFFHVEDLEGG

IW[Nle][Aib]QGLRRLGDEI[alpha‑4‑pentenylAla]AYY[alpha‑4‑pentenylAla]RR (staple 15-19, Stapled peptide IWBAibQGLRRLGDEIXAYYXRR) [M2d]
IC50 (Mcl-1 [1]): 0.106 µM

B1: M1d (peptide)
peptide: IW[Nle]TQGLRRLGDEI[alpha‑4‑pentenylAla]AYY[alpha‑4‑pentenylAla]RR
modifications: staple 15-19
notes: Truncated, stapled variant of MS1, usually printed 'Mld'; also called Mld
IC50 (Mcl-1 [1]): 0.35 µM

B2: biotinylated M3d (peptide)
peptide: IW[Nle][Aib]QG[Cha]RRLGDEI[alpha‑4‑pentenylAla]AYY[alpha‑4‑pentenylAla]RR
modifications: staple 15-19; also: biotinylated, site and linker not given here
notes: also called M3d (biotinylated stapled peptide)
Kd (Mcl-1 [2]): 0.005 µM

B3: M3d (peptide)
peptide: IW[Nle][Aib]QG[Cha]RRLGDEI[alpha‑4‑pentenylAla]AYY[alpha‑4‑pentenylAla]RR
modifications: staple 15-19
notes: Stapled peptide IWBAibQGChaRRLGDEIXAYYXRR
BH3 profiling (mitochondrial membrane integrity, JC1 dye) in Mcl-1/Myc 2640 cells, EC50 (murine Mcl-1): 0.03 µM | IC50 (Mcl-1 [1]): 0.072 µM
